According to the DeepSol protein solubility set:

assay: soluble on expression in E. coli; label from the status in PepcDB or PDB records

| Sequence | soluble on expression in E. coli |
| --- | --- |
| MAHHHHHHMLQINAFKLVRATPFLLKRTGKPADTPDYKQVYLPYDAAPTERELERERRRFKQAHHGRMEHRKLVEVKEVPLNVYTYGKEGMSLPIAIFKDQKDPVIGPEWTYPGIYENKIAAQHWYTEELFDKESKEAFESPWQQQILDNQVKRRMAKVMFRMRQVNMKAVDLFQKERGSSRRSGGAGE | not soluble |
| MKHHHHHPMVPSYDSFDSEDYPAALPNHKPKGTFKDYVRDRADLNKDKPVIPAAALAGYTGSGPIQLWQFLLELLTDKSSQSFISWTGDGWEFKLSDPDEVARRWGKRKNKPKMNYEKLSRGLRYYYDKNIIHKTAGKRYVYRFVSDLQSLLGYTPEELHAMLDVKPDADE | soluble |
| FRVERSQPASQPLTYESGPDEVRAWLEAKAFSPRIVENLGILTGPQLFSLNKEELKKVCGEEGVRVYSQLTMQKAFLEKQQSGSEL | soluble |
| MPDFAKQGPIVIGGVGGSGTRLIAEIVMDMGFYLGGMLNQSKDLLYFSLLFKRPTWFSKVVTSNEQEIFRGLKILENRLTTQKELTGKDIKFIEKAAQTYRNGDLLAQKIKKNMLFPDPINRQLYRGWGWKEPNAHLFLPYIHRYFPNGKYIHVIRNGLNMAFSKNQQQLFNWGPLFGVTIPNNPMKIPNASLTYWIKANERAVMYGTEQMKGRFLLIQFDQLCVNPTPQLQKLAEFLAVDDLAIDEWSEKIDPAAAASKYKEADLEHHHHHH | not soluble |
| MPVPDLFAEGLARGWKTYNGSRLDDDLELEADVVVVGTGAGGGTTAEILSAAGLKVLLVEEGPLKTSSDFKMQEADAYPELYQEGIGRMSKDGAITILQGRAVGGTTLINWTSSFRTPEPTLQHWAQVYGVKGHSAEDMAPWFEKMEQRLHVAPWALPPNANNDVIRLGCEKLGYHWKVIPRNVLGCWNLGYCGMGCPVNAKQSMLVTTIPATLDKGGELLYLARANRLLLDGDKVTGLECLGMDERCVAPNGRRIRVRARHYVLSGGGINTPAILLRSKAPDPSQRVGKRTFLHTVNFSAGLFDRVINPFYGAPQSIYSDHFQWDDGVTGRMSYKLEVPPLQPSLASVLLGGFGSDNALRMEQLPHTNMMLALLRDGFHPDSAEGSVGLRGDDTPVLDYRMTDYTWDGIRRAFHTMAEIQFAAGAREVRPVHSDARSAKNLQEARGIIDGLRLEIYRTRLGSAHVMGGCAMGEDPAVAVADSLGRHHHLRNLSIHDGSLFPTSIGANPQLSVYGLTAQLASALAERLARALEHHHHHH | not soluble |
| MANECRSLRNMETDGFQVVTEVVTHKLNHIPIFKGDFASLSPKVQRFVAEKAELMNPAGIYICDGSQKEYDDIVDKLVERGVLTPLKAYENNYLCRTDPRDVARVESKTWMVTKDKYDSVCHTPDGVRPIMGQWMSEEQFGVELDSRFPGCMAGRPMYVVPYSMGPIGGPLSKNGIELTDSPYVVLCMRTMTRMGTKVLEALGDNDFVRCIHSVGLPRPVKQKVINHWPCNPEKVMIAHRPKEREIWSFGSGYGGNSILGKKCFALRIACNIGRDEGWLAEHMLIMGVTNPEGEEKFIAAAFPSACGKTNLAMLTPTVPGWKVRVVGDDIAWMKFGADGRLYAINPEAGFFGVAPGTSHKTNAMAMESCRANTIFTNVAETADGEYFWEGLEKELKEAKGYTDEQLKHLEITNWLGERWHIGDEGKAAHPNSRFTAPAKQCPNIHPDWEAPQGVPIDAIVFGGRRPEGVPLVFESFSWEHGILVGALVKSETTAAAEFTGKNVMHDPMAMRPFMGYNYGKYLEHWIKLGKAPHKAPKIFHVNWFRETKDHKFLWPGFGDNIRVLDWILRRVAGGEEEIAIETAIGYVPKRGTINLDGLPRIDWNDLMSIPKDYWVEDVDESRHFLDTQVGSDLPQPIRDELDKLEKRVHAL | not soluble |
| MIVRFAGRRGVVSTCNLNGGYREDLRYAFNNSCGRDPDVIAKRSVGMRGKTMIEHYAALAEELGLPLDKTTGMGTAALIENTATSSRQYHGVTVMAVATAGIDVNGGRAGEPAAYNEFTQTDLIKPGTINVFLFIDASLDAGTLTRALVTATEAKSAALQELMANSMYSEDLATGSGTDSLIAICNKESEIVLQNSGKHVLLGEMIGQSVKEAITEALSRQTKMTPTRQASIEWQTKRYGITREAIVSECLRLYPHLKKEVVEAGIGGIDRDNRLVAAVAAIAHLCDQNRWQIISDKSMTCTAENILHTILSERGISEEANRKDIVCGQDAPAYRQVLSLCLHTLARILHNRIIHSSL | not soluble |
| GSMQRASRLKRELHMLATEPPPGITCWQDKDQMDDLRAQILGGANTPYEKGVFKLEVIIPERYPFEPPQIRFLTPIYHPNIDSAGRICLDVLKLPPKGAWRPSLNIATVLTSIQLLMSEPNPDDPLMADISSEFKYNKPAFLKNARQWTEKHARQKQKADEEEMLDNLP | soluble |
| MPQVQSWFPVQKQPTLAVTFTPLPQLSHAHLPLPPSHLVTKTDAMFQHQLLPTQLQPFPPNHTPLLLLLTVTTMAVTPRLSLLNVLKKLQQPPFLQNHTLLLPLLTVTTTAVTPRLSLPRLPNKHHWPLAQSPSLLLQLLILLLPAPSLVLSFNPKVWLLV | not soluble |
| THILTLTSGFHLWSHTENSGKKSKIIAVHGGPGETHESFETLPLGVPNAEITSYDQLGSWYSDQPDFSDPKLAKKYLRIEYFVNELEEVRRQLEYDKFILLGYSWGAMIALEYALKYPGNLDKLVIVGMSDRESDFTDRMKDEVAKVLSKDEAKYVFTEAKKGELDDPLFNQFMEKFYNDYYSRFSKSQSKHAIDISNYQVANYMMGTNPFHTEGMMSGWNVSDKLYRIKTPTLILVGDQDMISPKKARVMADKLPNGKLEIIPDATHVSLRDNPEYFFQQLNQFLTN | not soluble |
| MGSDKIHHHHHHMIELERVCKDYHTRQGMRRVLNRIDLRVKQGEKVGILGRNGAGKSTLIRMISGAELPTEGRIRRSMNVSWPLAFGGAFQGSLTGMDNLRFICRVYGADPKAAEPFVQEFSELGYYLREPVKSYSAGMRARLAFAISMAIEFDCFLIDEIVAVGDSRFHAKCHHELFEQRKDRALIIVSHDASYIRQHCDRASVLIEGKLHSFDSVEDAYTFYQESTA | not soluble |
| MAHHHHHHMSGAFGCGSYRSVVAGTQNVPRRMTFYPSAYELIQLHKAHREVIRHFYVRDKIFDNKFPGNALANGLFKFVPNRRENYHMRELMESIRRRSIWMHRIKQQREINAKVVENMEVKYGKKAAASMLCFTTPDSNAYFAPHRYQDVANSWPNYWQHPSVNHVVPKPRWRRHRELGGITRVEDPFAVQASDY | not soluble |
| MGEETRRQERRIDAEKRAVSSLLFRIIRSHSTPVANSTASDEATAAAAAGQQNFASRKRRETKKREKSSSSCVSHCFLVMGHGKAFVF | not soluble |
| MSFQNQFTKTTTDANLMETVHHGSAEYPFRYYYENIALFDFKCIDWHWHSELEFIYIESGNVVFDIGTVHFELNEGNGIMINSKILHRLQSSSDAIIPNFLFQPSFIAPQDSLIYKKYINPVISSSLEYLVFQPDIPWQKKALEIIKTIIAVQETEFNREIIVSMSVQQLWILLLENLTFDQFENMGAVISRTRLQLMMQYVHAHYSENITLEDIARTANISKSTALHLFQNNLKLTPVKYLINYRLTQAALLLINTEEKIATISNNTGFNNVDHFCRTFKKTYKMTPTDYRNQERAPVS | not soluble |
| PSTLELLKDVHLGLPVPCHDPARLALLSGHYLYYHYGCDGLDDRGWGCGYRTLQTLCSWPGGQSSGVPGLPALQGALEAMGDKPPGFRGSRNWIGCVEASLCLEHFGGPQGRLCHLPRGVGLRGEEERLYSHFTTGGGPVMVGGDADAQSKALLGICEGPGSEVYVLILDPHYWGTPKNRCELQAAGWVGWQKVKSVFDSNSFYNLCFTRLEHHHHHH | soluble |
| MSNNEIVFVTGNANKLKEVQSILTQEVDNNNKTIHLINEALDLEELQDTDLNAIALAKGKQAVAALGKGKPVFVEDTALRFDEFNGLPGAYIKWFLKSMGLEKIVKMLEPFENKNAEAVTTICFADSRGEYHFFQGITRGKIVPSRGPTTFGWDSIFEPFDSHGLTYAEMSKDAKNAISHRGKAFAQFKEYLYQNDF | not soluble |
| EAYIGVLIDDLVTKGTNEPYRLLTSRAEYRLLLRHDNADLRLTEKGYEIGLIARERYERFCEKKAQIAAEKKRLESITVKPSKEVNALLEEVGSAPLKEAVQANVFLKRPEVTYEHVAKVIPAPEQELSADVAEQVEIQIKYEGYISKMLQQVERAKKMNDKKIPEDLDYDAINGLATEAKQKLSEVRPLSVGQASRVSGVNPSDISILLVYLE | not soluble |
| MSASRQRPGNHLLPTLFDRLCDDAPNQKRDHGISVSPVQIKEIIRRDLSFLLNTVSHEDDIDAARYPYAAASVLNYGLPPLAGSFLYEHKWDDIRRAILRTITRFEPRLKASTLQIIPLQDERRQSGHNTLQFEIRGEILTQPYPTAFRVRSALDMEQSRITFF | not soluble |
| MIDHNIRTGKAFFGRRKGKRLRNSQLVLIKKLFPTLDINLNNSVPLNLTSLFSRKVKEVRLEIGFGGGEHLLHEMKHFPQTGFIGIEPFINGMAKMLMSLEEHKQYQNQLRLYNDDATGLLDWLPNASLDGIDLFYPDPWPKKKHWKRRFINMKNLNRFARVLKTGKKFRFASDIESYVNWTLYHCSNHHSFEWEAKNPKDWKTPYTLWSGTRYEAKALREGRAPTYLTFIKK | not soluble |
| MSDHDRDFDVVVVGGGHNGLVAAAYLARAGLRVRLLERLAQTGGAAVSIQAFDGVEVALSRYSYLVSLLPSRIVADLGAPVRLARRPFSSYTPAPATAGRSGLLIGPTGEPRAAHLAAIGAAPDAHGFAAFYRRCRLVTARLWPTLIEPLRTREQARRDIVEYGGHEAAAAWQAMVDEPIGHAIAGAVANDLLRGVIATDALIGTFARMHEPSLMQNICFLYHLVGGGTGVWHVPIGGMGSVTSALATAAARHGAEIVTGADVFALDPDGTVRYHSDGSDGAEHLVRGRFVLVGVTPAVLASLLGEPVAALAPGAQVKVNMVVRRLPRLRDDSVTPQQAFAGTFHVNETWSQLDAAYSQAASGRLPDPLPCEAYCHSLTDPSILSARLRDAGAQTLTVFGLHTPHSVFGDTEGLAERLTAAVLASLNSVLAEPIQDVLWTDAQSKPCIETTTTLDLQRTLGMTGGNIFHGALSWPFADNDDPLDTPARQWGVATDHERIMLCGSGARRGGAVSGIGGHNAAMAVLACLASRRKSPLEHHHHHH | not soluble |
| AHHHHHHGSPKIEPFEKYTERYEEWFERNKFAYLSELNALKSLLPTRECVEVGIGSGRFAAPLGIKMGVEPSKKMAEIARKRGIRVIEGVAENLPFEDNSLDCILMVTTICFVDDPEKAIKEAYRVLKPGGYIVIGFVDKESLIGREYEKRKDKSVFYRDARFFSAREIMELLERNGFKIDGVVQTLFKKLDEIRDVEPVEEGYGRGSFVVIRAKKVV | soluble |
| SQLVECVPNFSEGKNQEVIDAISRAVAQTPGCVLLDVDSGPSTNRTVYTFVGRPEDVVEGALNAARAAYQLIDMSRHHGEHPRMGALDVCPFIPVRGVTMDECVRCAQAFGQRLAEELGVPVYLYGEAARTAGRQSLPALRAGEYEALPEKLKQAEWAPDFGPSAFVPSWGATVAGARKFLLAFNINLLSTREQAHRIALDLREQGRGKDQPGRLKKVQAIGWYLDEKNLAQVSTNLLDFEVTGLHTVFEETCREAQELSLPVVGSQLVGLVPLKALLDAAAFYCEKENLFLLQDEHRIRLVVNRLGLDSLAPFKPKERIIEYLV | soluble |
